Assay: soluble on expression in E. coli; label from the status in PepcDB or PDB records

Sequence | soluble on expression in E. coli
MQRVAISTLGCKINQFESAAMTESLGREGFRVVPFDEDADIYVINTCTVTAKTDAESRRLIRRALRRNPAARVVVTGCYAQVAPDAVKDLPGVALVVGNSEKRSIGELLRDAAPAEKVMVSDISRERTAEGLRLESFAEHTRAFLQVQNGCDAFCSYCIVPYARGRSRSVSFSEALAGIRNFAAQGFREVVLTGIHLGAYGLDLAPPTNLLALLEASEAEKAVPRLRVGSVEPNELTDALVDFLARSETVCPHLHIPLQSGDDRVLERMGRRYTAAFFRERVERLVAVVPDIFIGCDVIAGFPGETDEEFQNTVRLIEELPVASLHVFPYSRREGTAAARMEGQVDGKVIRGRAEILREVGERKRRSFCERFVGRELAVLMQNRGRDGEAVGLSRNYLPVRVPGYAGEMNAEATVMVTEVTPDGVGGIIRGLEHHHHHH | soluble
MHMQLKGKTALVTGSTAGIGKAIATSLVAEGANVLINGRREENVNETIKEIRAQYPDAILQPVVADLGTEQGCQDVIEKYPKVDILINNLGIFEPVEYFDIPDEDWFKLFEVNIMSGVRLTRSYLKKMIERKEGRVIFIASEAAIMPSQEMAHYSATKTMQLSLSRSLAELTTGTNVTVNTIMPGSTLTEGVETMLNSLYPNEQLTIEEAEKRFMKENRPTSIIQRLIRPEEIAHLVTFLSSPLSSAINGSALRIDGGLVRSVF | not soluble
MGTFTLHQGQTNLIKSFFRNYYLNAELELPKDMELREFALQPFGSDTYVRHLSFSSSEELRDYLVNRNLPLHLFYSSARYQLPSARNMEEKAWMGSDLLFDIDADHLCKLRSIRFCPVCGNAVVSEKCERDNVETLEYVEMTSECIKRGLEQTRNLVEILEDDFGLKPKVYFSGNRGFHVQVDCYGNCALLDSDERKEIAEYVMGIGVPGYPGGSENAPGWVGRKNRGINGVTIDEQVTIDVKRLIRIPNSLHGKSGLIVKRVPNLDDFEFNETLSPFTGYTIFLPYITIETEVLGSIIKLNRGIPIKIKSSIGIYLHLRNLGEVKAYVR | soluble
MAHHHHHHMSQSTSLAYATLFHPSRDSATIQHSAARASAAHQQQVQQSPSITRATDGATYTAEGIAVASLSSLDTWTGFLSSQWAETVKMQLSMPSNAAPVISPSGADLISSLHSIVSRQNKVVAQPQEKLVAQRAKEEKDWEAKKQLSQSTSAEGMPGSFKNTKDEAVSSVDDNVADNAAENTQVCVLLAHLLEHARFLWARAVSQHFRVAQVRKSSSSKDTRSPKKVTADINAEAAMEEERVGLPPISLLFRCLVDGINSEEARQAIVTAGVLPASAWDSGVLGVDQLGILTVFERHVQALRTFPGIVPPLEALREYFAELHPQQLSKYYPSGALDSTLELAEAQMDAFLRFGDETEQMAALLRAGLHPSVRRLLYARALQVPLTVTDGKPMFLAQGELMTNHLRHGLARYLTCSSRQARDKVKRRFHHRYSSSKEENRVRLLQRLALDDMFISVGNSDKYFVYTDDVEVLSTAMVVDHSLPVPKMVQALKQLGRPRDLLDSYVTYLQYPETNLVQQKALPCGVAPLEGFALLLGALCNVTSDTVEQYELAAAIVAQLWSRLQGPTPELFQCCLIFESLVQQLALPAVLHATRNLQYPPLVLAMRWMLTGFADLLDAFEVLSFWDLVLSYHMREMHRRSPLSLPTGLANAAPHDTSTPCALWLLPMYAAAIFVMRAPLVEACRTAAEVDVVFATGHQLRTRSLLQGLLFG | not soluble
MGSDKIHHHHHHMGPINFEKAKKEREQAVIARLIDIRKAQQEYRSLHHGMYTEHFDTLIDFVKNQKLPFVMKVGQLTDDQLESGLTEKKAMAIINKAKKTGKYDEVKKNGLENFKRDTMWVAVMDTIYPKGFNADSMKYIPYGNGAIFEMNVKNDTAKSGAPVYLFEVKAPYETYLGGLDRQEIINLKDLNEKLGRYSGLMVGSIDNPNNGAGNWE | not soluble
MSLAEYVYTMSRVSKIVPPKRQILKDISLSFFPGAKIGVLGLNGAGKSTLLRIMAGIDKDIDGEARPQPGLKVGYLPQEPKLDESKTVREVVEEAVADVAYALKRLDEVYAAYAEPDADFDALAKEQGELEALIQAKNGHNLDNALERAADALRLPEWDAQVKYLSGGERRRVAICRLLLENPDMLLLDEPTNHLDAESVAWLERFLVDYAGTVVAITHDRYFLDNAAGWILELDRGEGIPWQGNYTSWLEQKDARLKQEASEGHHHHHH | not soluble

Reference: the DeepSol protein solubility set
